The target of test [1] is F-actin from chicken pectoral skeletal muscle (chicken) (UniProt P68139). Nature of the test: differential scanning calorimetry; tropomyosin 15 µM and TnT 70–170 18 µM with phalloidin (36 µM) stabilized F-actin (24 µM), 100 mM NaCl, 10 mM Hepes pH 7.0, 2 mM MgCl2, 1 mM DTT; three heating scans at 1°C/min; peak of unfolding/dissociation of actin-bound tropomyosin. In general terms: Differential scanning calorimetry records heat flow against a reference as temperature is scanned.

The target is the same in test [2]. The experiment in a line: co-sedimentation; tropomyosin 0.1–10 µM with 0.12–12 µM troponin T 70–170 (1.2× molar excess) and 5 µM F-actin, 20°C, 250 mM NaCl, 10 mM TrisHCl pH 7.5, 2 mM MgCl2, 0.5 mM DTT; pellets and supernatants by SDS-PAGE and densitometry; apparent constant (Kapp) and Hill coefficient from a fit to the Hill equation.
For the next test, the target named is F-actin (UniProt P68133). The experiment in a line: given as Ka. Conditions: cited from earlier work.

Consider two substances from publication PMC2710508.

In test [1], “P5→P3 tropomyosin (residues 165–188 of P5 replace residues 88–111 of P3) (from UniProt P04692 1-284) (natural protein)” came in with a DSC TM of dissociation from F-actin (TM3) of 37.6 °C and a DSC ΔΔH (with minus without F-actin) of 37.6 kcal/mol. In addition, in test [2], the Ka amounted to 1.33e+06 M⁻¹.

For the substance tropomyosin (from UniProt P09493), the association constant (Ka) with F-actin is 400 µM.
